Measurements: patent US20220259330A1 (SUNSHINE GUOJIAN PHARMACEUTICAL SHANGHAI, published 2022)
“And” between values parts separate entries of the source, which are not always exact repeats. Identical values can stand only once. Values belong to the binder of their own block, whether it stands above or below them.

Assays:
PD1-His = molecular target: T1, PD1-His (human, UniProt Q15116 25-170); test: ELISA, plate coated with PD1-His
T1 construct: extracellular domain; In-house protein; also called extracellular domain protein of human PD-1 with a 6*His tag
T1 sequence (Q15116 other isoform, or with tags, fused parts or gaps): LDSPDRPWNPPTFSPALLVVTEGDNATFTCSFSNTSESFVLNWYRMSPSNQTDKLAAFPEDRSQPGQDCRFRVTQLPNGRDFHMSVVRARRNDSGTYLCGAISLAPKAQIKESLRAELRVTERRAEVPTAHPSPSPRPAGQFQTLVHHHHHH

VEGF165-His [1] = molecular target: T2, VEGF165-His (human, UniProt P15692-4 27-191); test: ELISA, VEGF165-His coated at 10 ng/well
T2 construct: also called Human VEGF165 with a 6*His tag
T2 sequence: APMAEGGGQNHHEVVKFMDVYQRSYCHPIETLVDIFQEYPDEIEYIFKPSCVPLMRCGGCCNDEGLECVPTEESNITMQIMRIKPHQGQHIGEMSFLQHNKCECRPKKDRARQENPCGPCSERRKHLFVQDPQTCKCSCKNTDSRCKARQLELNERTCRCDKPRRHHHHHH
Method: (§1) The ELISA detection method used in the following examples is described as follows: An ELISA plate was coated with recombinant proteins, respectively, and blocked with PBST containing 1% bovine serum albumin (PBST: phosphate buffer containing 0.05% Tween-20). The antibody to be tested was serially diluted, and then transferred to the above plate coated with recombinant protein, incubated at room temperature for half an hour and then the plate was washed; an appropriately diluted HRP (Horseradish Peroxidase)-labeled goat anti-human antibody (Fc- or Fab Specific, purchased from Sigma) was added, incubated at room temperature for half an hour and then the plate was washed; 100 μl of chromogenic solution with TMB (3,3′,5,5′-Tetramethylbenzidine) as a substrate was added to each well, incubated at room temperature for 1-5 min; 50 μl of stop solution (2M H₂SO₄) was added to stop the reaction. OD450 was read with a microplate reader (SpectraMax 190), and graphing and data analysis were performed using GraphPad Prism6, and EC50 was calculated.
(§2) Human VEGF165 with a 6*His tag (sequence from NCBI, Accession: AAM03108), and this recombinant protein was denoted as VEGF165-His. An ELISA plate was coated with PD1-His and VEGF165-His, with a coating concentration of 20 ng/well and 10 ng/well, respectively.

VEGF165-His [2] = molecular target: T2, VEGF165-His; test: ELISA, plate coated with VEGF165-His
Method: as §1, §2

VEGF165-His [3] = molecular target: T2, VEGF165-His; test: SPR, Biacore 8K, antibody captured on Protein A/G chip, VEGF165-His injected
Method: Herein, the affinity of the above antibodies to PD-1 or VEGF was determined by Biacore 8K (GE healthcare). On Biacore 8K, the chip coupled with Protein A/G was used to capture various antibodies, respectively, and then the recombinant protein PD1-His or VEGF165-His was injected to obtain the binding-dissociation curve, which was eluted with 6M guanidine hydrochloride regeneration buffer for next cycle. Data were analyzed using the Biacore 8K Evaluation Software.

CD47-ECD-His = molecular target: T3, CD47-ECD-His (human, UniProt Q08722 19-139); test: ELISA, plate coated with CD47-ECD-His
T3 construct: extracellular domain; Bought; also called recombinant protein of the extracellular segment of human CD47 with a polyhistidine tag (Sino Biological 12283-H08H); not shown: polyhistidine tag
T3 sequence (Q08722 19-139 limits assumed): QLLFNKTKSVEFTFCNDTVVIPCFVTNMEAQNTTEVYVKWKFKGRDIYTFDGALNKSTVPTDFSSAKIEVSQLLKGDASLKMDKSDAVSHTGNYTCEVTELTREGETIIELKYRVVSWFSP

HER2-ECD-His = molecular target: T4, HER2-ECD-His (human, UniProt P04626 23-652); test: ELISA, plate coated with HER2-ECD-His
T4 construct: extracellular domain; Bought; also called recombinant protein of the extracellular segment of human Her-2 with a polyhistidine tag (ACROBiosystems HE2-H5225); not shown: polyhistidine tag

CD137-ECD-Fc = molecular target: T5, CD137-ECD-Fc (human, UniProt Q07011 24-186); test: ELISA, plate coated with CD137-ECD-Fc
T5 construct: extracellular domain; Bought; also called recombinant protein of the extracellular segment of human CD137 with Fc tags (Sino Biological 10041-H02H); not shown: Fc tag
T5 sequence (Q07011 24-186): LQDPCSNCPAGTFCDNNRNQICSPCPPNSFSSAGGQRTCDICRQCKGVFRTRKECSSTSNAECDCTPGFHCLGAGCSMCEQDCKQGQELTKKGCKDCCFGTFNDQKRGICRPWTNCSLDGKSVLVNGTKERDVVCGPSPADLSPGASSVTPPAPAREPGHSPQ

CD40-ECD-His = molecular target: T6, CD40-ECD-His (human, UniProt P25942 21-193); test: ELISA, plate coated with CD40-ECD-His
T6 construct: extracellular domain; Bought; also called recombinant protein of the extracellular segment of human CD40 with a polyhistidine tag (Sino Biological 10774-H08H); not shown: polyhistidine tag
T6 sequence (P25942 21-193): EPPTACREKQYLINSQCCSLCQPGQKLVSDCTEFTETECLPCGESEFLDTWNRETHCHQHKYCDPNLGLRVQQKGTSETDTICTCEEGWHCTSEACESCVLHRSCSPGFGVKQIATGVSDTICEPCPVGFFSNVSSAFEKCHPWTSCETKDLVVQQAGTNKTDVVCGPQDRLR

PD1-ECD-His = molecular target: T7, PD1-ECD-His (human, UniProt Q15116 25-170); test: ELISA, plate coated with PD1-ECD-His
T7 construct: extracellular domain; Bought; also called recombinant protein of the extracellular segment of human PD-1 with a polyhistidine tag (Sino Biological 10377-H08H); not shown: polyhistidine tag
T7 sequence (Q15116 25-170): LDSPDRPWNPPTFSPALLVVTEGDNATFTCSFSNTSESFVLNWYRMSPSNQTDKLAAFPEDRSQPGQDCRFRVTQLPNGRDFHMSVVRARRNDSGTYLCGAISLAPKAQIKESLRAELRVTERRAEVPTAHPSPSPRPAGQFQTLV

EC50 (PD1-His): 0.625 nM and 0.975 nM
binding result (VEGF165-His [1]): no binding
B1: 20-Hu-HC+601-LC (antibody, human IgG4 S228P, kappa, V domains shown)
VH: EVQLVESGGGLVQPGGSLRLSCAASGFVFSNYDMSWVRQAPGKRLEWVATISGGGGYTYYSDSVKGRFTISRDNAKNSLYLQMNSLRAEDTAVYYCASPYGHYGFEYWGQGTLVTVSS
VL: DIQMTQSPSSLSASVGDRVTITCSASQDISNYLNWYQQKPGKAPKVLIYFTSSLHSGVPSRFSGSGSGTDFTLTISSLQPEDFATYYCQQYSTVPWTFGQGTKVEIKR
notes: Hybrid antibody

EC50 (VEGF165-His [2]): 0.126 nM
B2: 601-HC+601-LC-T93N (antibody, human IgG1, kappa, V domains shown)
VH: EVQLVESGGGLVQPGGSLRLSCAASGYTFTNYGMNWVRQAPGKGLEWVGWINTYTGEPTYAADFKRRFTFSLDTSKSTAYLQMNSLRAEDTAVYYCAKYPHYYGSSHWYFDVWGQGTLVTVSS
VL: DIQMTQSPSSLSASVGDRVTITCSASQDISNYLNWYQQKPGKAPKVLIYFTSSLHSGVPSRFSGSGSGTDFTLTISSLQPEDFATYYCQQYSNVPWTFGQGTKVEIKR

EC50 (PD1-His): 0.206 nM
binding result (VEGF165-His [1]): no binding
B3: 20-Hu (antibody, human IgG4 S228P, kappa, V domains shown)
VH: EVQLVESGGGLVQPGGSLRLSCAASGFVFSNYDMSWVRQAPGKRLEWVATISGGGGYTYYSDSVKGRFTISRDNAKNSLYLQMNSLRAEDTAVYYCASPYGHYGFEYWGQGTLVTVSS
VL: DIQMTQSPSSLSASVGDRVTITCSASQGISNFLSWYQQKPGKTVKLLIYYTSSLHSGVPSRFSGSGSGTDYTFTISSLQPEDIATYYCQQYSNLPWTFGQGTKVEIKR
notes: Humanized anti-human PD-1, IgG4 (S228P), kappa; also called 20-Humanized; 20-Hu-HC+20-Hu-LC

EC50 (VEGF165-His [2]): 0.125 nM
B4: 601-HC+601-LC-Y32F (antibody, human IgG1, kappa, V domains shown)
VH: EVQLVESGGGLVQPGGSLRLSCAASGYTFTNYGMNWVRQAPGKGLEWVGWINTYTGEPTYAADFKRRFTFSLDTSKSTAYLQMNSLRAEDTAVYYCAKYPHYYGSSHWYFDVWGQGTLVTVSS
VL: DIQMTQSPSSLSASVGDRVTITCSASQDISNFLNWYQQKPGKAPKVLIYFTSSLHSGVPSRFSGSGSGTDFTLTISSLQPEDFATYYCQQYSTVPWTFGQGTKVEIKR

Kd (VEGF165-His [3]): 0.00746 nM
koff (VEGF165-His [3]): 2.91e-05 s⁻¹
kon (VEGF165-His [3]): 3.9e+06 M⁻¹ s⁻¹
B5: 601-HC+601-LC-V94L (antibody, human IgG1, kappa, V domains shown)
VH: EVQLVESGGGLVQPGGSLRLSCAASGYTFTNYGMNWVRQAPGKGLEWVGWINTYTGEPTYAADFKRRFTFSLDTSKSTAYLQMNSLRAEDTAVYYCAKYPHYYGSSHWYFDVWGQGTLVTVSS
VL: DIQMTQSPSSLSASVGDRVTITCSASQDISNYLNWYQQKPGKAPKVLIYFTSSLHSGVPSRFSGSGSGTDFTLTISSLQPEDFATYYCQQYSTLPWTFGQGTKVEIKR

EC50 (VEGF165-His [2]): 0.326 nM
B6: 601-HC+601-LC-V46L (antibody, human IgG1, kappa, V domains shown)
VH: EVQLVESGGGLVQPGGSLRLSCAASGYTFTNYGMNWVRQAPGKGLEWVGWINTYTGEPTYAADFKRRFTFSLDTSKSTAYLQMNSLRAEDTAVYYCAKYPHYYGSSHWYFDVWGQGTLVTVSS
VL: DIQMTQSPSSLSASVGDRVTITCSASQDISNYLNWYQQKPGKAPKLLIYFTSSLHSGVPSRFSGSGSGTDFTLTISSLQPEDFATYYCQQYSTVPWTFGQGTKVEIKR

EC50 (CD47-ECD-His): 0.0782 nM
EC50 (HER2-ECD-His): 0.106 nM
B7: CD47B-Fab-19H6-IgG1 (bispecific antibody)
heavy: not shown
light: DVVMTQSPLSLPVTLGQPASISCRSSQSLVHSNGNTYLHWYQQRPGQSPRLLIYKVSNRFSGVPDRFSGSGSGTDFTLKISRVEAEDVGVYFCSQSTHIPWTFGQGTKVEIKRTVAAPSVFIFPPSDEQLKSGTASVVCLLNNFYPREAKVQWKVDNALQSGNSQESVTEQDSKDSTYSLSSTLTLSKADYEKHKVYACEVTHQGLSSPVTKSFNRGEC

EC50 (CD47-ECD-His): 0.195 nM
EC50 (HER2-ECD-His): 0.154 nM
B8: 19H6-Fab-CD47B-IgG1 (bispecific antibody)
heavy: not shown
light: DVVMTQSPLSLPVTLGQPASISCRSSQSLVHSNGNTYLHWYQQRPGQSPRLLIYKVSNRFSGVPDRFSGSGSGTDFTLKISRVEAEDVGVYFCSQSTHIPWTFGQGTKVEIKRTVAAPSVFIFPPSDEQLKSGTASVVCLLNNFYPREAKVQWKVDNALQSGNSQESVTEQDSKDSTYSLSSTLTLSKADYEKHKVYACEVTHQGLSSPVTKSFNRGEC

binding result (CD47-ECD-His): no binding
binding result (CD137-ECD-Fc): no binding
EC50 (HER2-ECD-His): 0.077 nM and 0.126 nM and 0.122 nM and 0.193 nM
B9: 19H6-Hu (antibody, human IgG1, kappa, V domains shown)
VH: QVQLVQSGAEVKKPGASVKVSCKGSGYTFTDYAIHWVRQAPGQSLEWIGVFSIYYENINYNQKFKGRATMTVDKSTSTAYMELRSLRSDDTAVYYCARRDGGTINYWGQGTLVTVSS
VL: DVVMTQSPLSLPVTLGQPASISCRSSQSLVHSNGNTYLHWYQQRPGQSPRLLIYKVSNRFSGVPDRFSGSGSGTDFTLKISRVEAEDVGVYFCSQSTHIPWTFGQGTKVEIKR
notes: Humanized anti-human HER2, IgG1, kappa; also called 19H6-Hu-HC+19H6-Hu-LC

EC50 (CD47-ECD-His): 0.0428 nM
binding result (HER2-ECD-His): no binding
B10: Anti-CD47B-Hu (antibody, human IgG1, kappa, V domains shown)
VH: QVQLVQSGAEVKKPGASVKVSCKASGYTFANHVIHWVRQAPGQGLEWMGYIYPYNDGTKYNEKFKDRVTLTSDKSTSTVYMELSSLRSEDTAVYYCARGGYYTYDDWGQGTLVTVSS
VL: DVVMTQSPLSLPVTLGQPASISCRSSQSLVHSNGKTYLHWYQQRPGQSPRLLIYKVSNRFSGVPDRFSGSGSGTDFTLKISRVEAEDVGVYYCSQSTHVPYTFGQGTKVEIKR
notes: Humanized anti-human CD47, IgG1, kappa; also called humanized MABL-2

binding result (CD47-ECD-His): no binding
EC50 (HER2-ECD-His): 0.139 nM
B11: 19H6-Hu-HC+Anti-CD47B-Hu-LC (antibody, human IgG1, kappa, V domains shown)
VH: QVQLVQSGAEVKKPGASVKVSCKGSGYTFTDYAIHWVRQAPGQSLEWIGVFSIYYENINYNQKFKGRATMTVDKSTSTAYMELRSLRSDDTAVYYCARRDGGTINYWGQGTLVTVSS
VL: DVVMTQSPLSLPVTLGQPASISCRSSQSLVHSNGKTYLHWYQQRPGQSPRLLIYKVSNRFSGVPDRFSGSGSGTDFTLKISRVEAEDVGVYYCSQSTHVPYTFGQGTKVEIKR
notes: Hybrid antibody

EC50 (CD47-ECD-His): 0.0541 nM and 0.0617 nM
binding result (HER2-ECD-His): no binding
B12: Anti-CD47B-Hu-HC+19H6-Hu-LC (antibody, human IgG1, kappa, V domains shown)
VH: QVQLVQSGAEVKKPGASVKVSCKASGYTFANHVIHWVRQAPGQGLEWMGYIYPYNDGTKYNEKFKDRVTLTSDKSTSTVYMELSSLRSEDTAVYYCARGGYYTYDDWGQGTLVTVSS
VL: DVVMTQSPLSLPVTLGQPASISCRSSQSLVHSNGNTYLHWYQQRPGQSPRLLIYKVSNRFSGVPDRFSGSGSGTDFTLKISRVEAEDVGVYFCSQSTHIPWTFGQGTKVEIKR
notes: Hybrid antibody

EC50 (CD40-ECD-His): 0.0956 nM
EC50 (PD1-ECD-His): 1.02 nM
B13: 40-Fab-609-IgG4 (bispecific antibody)
heavy: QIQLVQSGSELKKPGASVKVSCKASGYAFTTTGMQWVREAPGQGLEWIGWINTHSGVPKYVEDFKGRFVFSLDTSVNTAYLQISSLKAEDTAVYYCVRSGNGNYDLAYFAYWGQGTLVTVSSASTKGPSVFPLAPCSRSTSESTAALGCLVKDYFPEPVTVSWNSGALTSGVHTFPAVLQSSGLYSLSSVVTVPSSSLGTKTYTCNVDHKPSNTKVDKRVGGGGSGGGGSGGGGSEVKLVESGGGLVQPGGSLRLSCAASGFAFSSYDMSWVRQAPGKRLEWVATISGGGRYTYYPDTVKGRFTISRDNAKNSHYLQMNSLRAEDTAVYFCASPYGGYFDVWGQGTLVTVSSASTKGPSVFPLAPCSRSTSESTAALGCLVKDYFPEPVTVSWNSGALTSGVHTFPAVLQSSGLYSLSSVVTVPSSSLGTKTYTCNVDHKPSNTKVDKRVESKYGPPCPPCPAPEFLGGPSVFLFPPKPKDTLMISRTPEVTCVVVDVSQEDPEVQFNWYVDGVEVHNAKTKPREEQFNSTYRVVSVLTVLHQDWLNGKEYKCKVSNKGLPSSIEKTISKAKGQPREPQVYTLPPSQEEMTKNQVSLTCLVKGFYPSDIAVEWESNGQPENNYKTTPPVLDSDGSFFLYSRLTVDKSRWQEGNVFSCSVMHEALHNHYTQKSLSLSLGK
light: EIVLTQSPATLSLSPGERATLSCRASQSISDYLHWYQQKPGQSPRLLIKYASHSISGIPARFSGSGSGSDFTLTISSLEPEDFAVYYCQHGHSFPWTFGQGTKVEIKRTVAAPSVFIFPPSDEQLKSGTASVVCLLNNFYPREAKVQWKVDNALQSGNSQESVTEQDSKDSTYSLSSTLTLSKADYEKHKVYACEVTHQGLSSPVTKSFNRGEC

EC50 (CD40-ECD-His): 0.105 nM
EC50 (PD1-ECD-His): 0.172 nM
B14: 609-Fab-40-IgG4 (bispecific antibody)
heavy: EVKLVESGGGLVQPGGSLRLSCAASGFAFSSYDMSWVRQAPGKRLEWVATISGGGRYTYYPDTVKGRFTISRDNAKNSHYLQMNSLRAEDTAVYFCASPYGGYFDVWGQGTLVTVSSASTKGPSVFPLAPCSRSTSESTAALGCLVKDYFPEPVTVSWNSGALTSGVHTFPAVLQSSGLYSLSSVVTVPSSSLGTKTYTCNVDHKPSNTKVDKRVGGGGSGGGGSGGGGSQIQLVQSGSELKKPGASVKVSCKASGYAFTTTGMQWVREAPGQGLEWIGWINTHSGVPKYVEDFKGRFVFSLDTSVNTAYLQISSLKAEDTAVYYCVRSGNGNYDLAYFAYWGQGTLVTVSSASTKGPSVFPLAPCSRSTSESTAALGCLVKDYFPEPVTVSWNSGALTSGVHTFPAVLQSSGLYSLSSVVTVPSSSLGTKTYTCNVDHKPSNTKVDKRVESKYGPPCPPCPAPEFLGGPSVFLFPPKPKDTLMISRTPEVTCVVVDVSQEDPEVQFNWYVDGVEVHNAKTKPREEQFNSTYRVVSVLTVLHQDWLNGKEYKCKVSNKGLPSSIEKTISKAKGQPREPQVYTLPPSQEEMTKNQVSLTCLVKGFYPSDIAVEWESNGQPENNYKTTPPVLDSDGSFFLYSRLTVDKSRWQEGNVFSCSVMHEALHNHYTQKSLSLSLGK
light: EIVLTQSPATLSLSPGERATLSCRASQSISDYLHWYQQKPGQSPRLLIKYASHSISGIPARFSGSGSGSDFTLTISSLEPEDFAVYYCQHGHSFPWTFGQGTKVEIKRTVAAPSVFIFPPSDEQLKSGTASVVCLLNNFYPREAKVQWKVDNALQSGNSQESVTEQDSKDSTYSLSSTLTLSKADYEKHKVYACEVTHQGLSSPVTKSFNRGEC

EC50 (CD40-ECD-His): 0.11 nM
binding result (PD1-ECD-His): no binding
B15: Anti-CD40-Hu (antibody, human IgG4 S228P, kappa, V domains shown)
VH: QIQLVQSGSELKKPGASVKVSCKASGYAFTTTGMQWVREAPGQGLEWIGWINTHSGVPKYVEDFKGRFVFSLDTSVNTAYLQISSLKAEDTAVYYCVRSGNGNYDLAYFAYWGQGTLVTVSS
VL: EIVLTQSPATLSLSPGERATLSCRASQSISDYLHWYQQKPGQSPRLLIKYASHSISGIPARFSGSGSGSDFTLTISSLEPEDFAVYYCQHGHSFPWTFGQGTKVEIKR
notes: Humanized anti-human CD40, IgG4 (S228P), kappa; also called humanized MAb2.220

binding result (CD40-ECD-His): no binding
binding result (PD1-ECD-His): no binding
B16: Anti-CD40-Hu-HC+609-LC (antibody, human IgG4 S228P, kappa, V domains shown)
VH: QIQLVQSGSELKKPGASVKVSCKASGYAFTTTGMQWVREAPGQGLEWIGWINTHSGVPKYVEDFKGRFVFSLDTSVNTAYLQISSLKAEDTAVYYCVRSGNGNYDLAYFAYWGQGTLVTVSS
VL: EIVLTQSPATLSLSPGERATLSCRASQSISNFLHWYQQKPGQAPRLLIKYASQSISGIPARFSGSGSGTDFTLTISSLEPEDFAVYFCQQSNSWPHTFGQGTKVEIKR
notes: Hybrid antibody
